{"source": "paper PMC3942479", "target": "Full-length Human cytomegalovirus glycoprotein B (FL-gB), Strep-tagged (Human cytomegalovirus (FIX7 BAC))", "experiment": "negative-stain electron microscopy; purified FL-gB on a glow-discharged carbon grid, 2% uranyl formate, 2D class averages"}
{"substance": "Full-length Human cytomegalovirus glycoprotein B (FL-gB), Strep-tagged (natural protein)", "values": [{"measurement": "stoichiometry N", "result": 3}]}
